These results are taken from IntAct's records for PubMed 31515488.

The labels stand for the following.
B1: pre-mRNA splicing regulator USH1G (Homo sapiens), Q495M9 (parent)
chain: MNDQYHRAARDGYLELLKEATRKELNAPDEDGMTPTLWAAYHGNLESLRLIVSRGGDPDKCDIWGNTPLHLAASNGHLHCLSFLVSFGANIWCLDNDYHTPLDMAAMKGHMECVRYLDSIAAKQSSLNPKLVGKLKDKAFREAERRIRECAKLQRRHHERMERRYRRELAERSDTLSFSSLTSSTLSRRLQHLALGSHLPYSQATLHGTARGKTKMQKKLERRKQGGEGTFKVSEDGRKSARSLSGLQLGSDVMFVRQGTYANPKEWGRAPLRDMFLSDEDSVSRATLAAEPAHSEVSTDSGHDSLFTRPGLGTMVFRRNYLSSGLHGLGREDGGLDGVGAPRGRLQSSPSLDDDSLGSANSLQDRSCGEELPWDELDLGLDEDLEPETSPLETFLASLHMEDFAALLRQEKIDLEALMLCSDLDLRSISVPLGPRKKILGAVRRRRQAMERPPALEDTEL
partner: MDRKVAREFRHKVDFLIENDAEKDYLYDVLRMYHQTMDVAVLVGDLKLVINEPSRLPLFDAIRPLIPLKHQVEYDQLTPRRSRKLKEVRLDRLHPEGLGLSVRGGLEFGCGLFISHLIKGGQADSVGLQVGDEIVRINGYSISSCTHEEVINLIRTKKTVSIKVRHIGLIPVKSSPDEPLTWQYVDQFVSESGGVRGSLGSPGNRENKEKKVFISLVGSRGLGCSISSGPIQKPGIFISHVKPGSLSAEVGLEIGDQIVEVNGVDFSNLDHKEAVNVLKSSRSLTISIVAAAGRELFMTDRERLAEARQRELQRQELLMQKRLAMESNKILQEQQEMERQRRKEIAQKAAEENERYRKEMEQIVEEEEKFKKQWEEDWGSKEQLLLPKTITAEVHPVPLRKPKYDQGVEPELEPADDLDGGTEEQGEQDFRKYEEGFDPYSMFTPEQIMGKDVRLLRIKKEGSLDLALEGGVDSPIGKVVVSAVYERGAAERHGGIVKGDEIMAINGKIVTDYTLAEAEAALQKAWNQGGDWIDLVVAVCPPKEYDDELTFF
B2: Oxidative stress-induced growth inhibitor 1 (Homo sapiens), Q9UJX0 (parent)
chain: MSSSRKDHLGASSSEPLPVIIVGNGPSGICLSYLLSGYTPYTKPDAIHPHPLLQRKLTEAPGVSILDQDLDYLSEGLEGRSQSPVALLFDALLRPDTDFGGNMKSVLTWKHRKEHAIPHVVLGRNLPGGAWHSIEGSMVILSQGQWMGLPDLEVKDWMQKKRRGLRNSRATAGDIAHYYRDYVVKKGLGHNFVSGAVVTAVEWGTPDPSSCGAQDSSPLFQVSGFLTRNQAQQPFSLWARNVVLATGTFDSPARLGIPGEALPFIHHELSALEAATRVGAVTPASDPVLIIGAGLSAADAVLYARHYNIPVIHAFRRAVDDPGLVFNQLPKMLYPEYHKVHQMMREQSILSPSPYEGYRSLPRHQLLCFKEDCQAVFQDLEGVEKVFGVSLVLVLIGSHPDLSFLPGAGADFAVDPDQPLSAKRNPIDVDPFTYQSTRQEGLYAMGPLAGDNFVRFVQGGALAVASSLLRKETRKPP
partner: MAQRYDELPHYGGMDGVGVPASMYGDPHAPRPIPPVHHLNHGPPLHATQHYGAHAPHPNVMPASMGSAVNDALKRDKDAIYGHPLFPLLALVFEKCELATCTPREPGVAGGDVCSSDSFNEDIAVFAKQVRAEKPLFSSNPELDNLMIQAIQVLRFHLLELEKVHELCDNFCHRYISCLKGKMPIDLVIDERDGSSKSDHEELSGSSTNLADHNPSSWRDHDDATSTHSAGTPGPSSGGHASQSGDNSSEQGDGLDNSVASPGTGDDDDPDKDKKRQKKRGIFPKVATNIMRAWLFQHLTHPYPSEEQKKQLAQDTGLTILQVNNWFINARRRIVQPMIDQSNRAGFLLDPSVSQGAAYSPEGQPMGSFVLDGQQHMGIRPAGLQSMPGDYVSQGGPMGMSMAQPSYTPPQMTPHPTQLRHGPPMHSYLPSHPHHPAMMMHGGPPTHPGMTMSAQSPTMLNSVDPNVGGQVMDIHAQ
B3: Homeobox protein VENTX (Homo sapiens), O95231 (parent)
chain: MRLSSSPPRGPQQLSSFGSVDWLSQSSCSGPTHTPRPADFSLGSLPGPGQTSGAREPPQAVSIKEAAGSSNLPAPERTMAGLSKEPNTLRAPRVRTAFTMEQVRTLEGVFQHHQYLSPLERKRLAREMQLSEVQIKTWFQNRRMKHKRQMQDPQLHSPFSGSLHAPPAFYSTSSGLANGLQLLCPWAPLSGPQALMLPPGSFWGLCQVAQEALASAGASCCGQPLASHPPTPGRPSLGPALSTGPRGLCAMPQTGDAF
partner: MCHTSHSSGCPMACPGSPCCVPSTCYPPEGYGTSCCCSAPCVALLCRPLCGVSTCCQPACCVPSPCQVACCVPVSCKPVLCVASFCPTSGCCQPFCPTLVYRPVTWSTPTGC
B4: DNA mismatch repair protein Mlh1 (Homo sapiens), P40692 (parent)
chain: MSFVAGVIRRLDETVVNRIAAGEVIQRPANAIKEMIENCLDAKSTSIQVIVKEGGLKLIQIQDNGTGIRKEDLDIVCERFTTSKLQSFEDLASISTYGFRGEALASISHVAHVTITTKTADGKCAYRASYSDGKLKAPPKPCAGNQGTQITVEDLFYNIATRRKALKNPSEEYGKILEVVGRYSVHNAGISFSVKKQGETVADVRTLPNASTVDNIRSIFGNAVSRELIEIGCEDKTLAFKMNGYISNANYSVKKCIFLLFINHRLVESTSLRKAIETVYAAYLPKNTHPFLYLSLEISPQNVDVNVHPTKHEVHFLHEESILERVQQHIESKLLGSNSSRMYFTQTLLPGLAGPSGEMVKSTTSLTSSSTSGSSDKVYAHQMVRTDSREQKLDAFLQPLSKPLSSQPQAIVTEDKTDISSGRARQQDEEMLELPAPAEVAAKNQSLEGDTTKGTSEMSEKRGPTSSNPRKRHREDSDVEMVEDDSRKEMTAACTPRRRIINLTSVLSLQEEINEQGHEVLREMLHNHSFVGCVNPQWALAQHQTKLYLLNTTKLSEELFYQILIYDFANFGVLRLSEPAPLFDLAMLALDSPESGWTEEDGPKEGLAEYIVEFLKKKAEMLADYFSLEIDEEGNLIGLPLLIDNYVPPLEGLPIFILRLATEVNWDEEKECFESLSKECAMFYSIRKQYISEESTLSGQQSEVPGSIPNSWKWTVEHIVYKALRSHILPPKHFTEDGNILQLANLPDLYKVFERC

The variants in one experiment derive from B1. Conditions: with ush1c_human USH1C.
For the variant L420V, the “effect of a mutation on the interaction” value is given as “with no effect”.

Variants of B2 are the subject of another experiment. Conditions: with meis2_human MEIS2, O14770.
On to S236L, for which the “effect of a mutation on the interaction” value is recorded as “with no effect”.
Consider D320N, for which the “effect of a mutation on the interaction” value is “with no effect”.

In a further experiment the parent is B3. The settings on record: with kr124_human KRTAP12-4, P60329.
Turning to L42P, the “effect of a mutation on the interaction” value was “with no effect”.
With M251V, the “effect of a mutation on the interaction” value was “with no effect”.
A226E: the “effect of a mutation on the interaction” value was “with no effect”.

Variants of B4 are the subject of the next experiment. Conditions: with msh3_human MSH3, P20585.
As to V384D, the “effect of a mutation on the interaction” value is listed as “with no effect”.
Regarding V326A, the “effect of a mutation on the interaction” value was “disrupting interaction strength”.

The next experiment covers variants of B4. The settings on record: with ima1_human KPNA2, P52292.
Turning to V384D, the “effect of a mutation on the interaction” value is given as “with no effect”.
With V326A, the “effect of a mutation on the interaction” value is “disrupting interaction strength”.

The variants in another experiment derive from B4. The settings on record: with psa1_human PSMA1, P25786.
Regarding V384D, the “effect of a mutation on the interaction” value is listed as “with no effect”.
On the same count and under the same terms, for V326A the value was “disrupting interaction strength”.
